Values of other authors as cited in US20150182632A1, “ANTI-INTERLEUKIN-1 (IL-1) ANTIBODY USED AS A TARGETING AGENT TO TREAT ARTHRITIS AND OTHER DISEASES” (priority 2012, published 2015).

Target: T1, IL-1 (Homo sapiens, UniProt P01584)
T1 construct: Patients with arthritis and other inflammatory diseases produce IL-1 which is present in the blood; host or cells: endogenous IL-1 of RA patients (in vivo)
Conditions: several intravenous injections

**Q.** Which “clinical response of RA patients” value does the source give for ACZ885: anti-IL-1 monoclonal antibody here?
**A.** The value was “clinical improvement”.
